The values that follow come from PMC5941314 (2018).

What all share (assay): ITC 25 C, TWO LABS merged (one a row), salt differs
The target of one assay is UBE2L3 (Homo sapiens (Human), UniProt P68036).
Another assay addresses T1, UBE2N (Homo sapiens (Human), UniProt P61088).
T1 chain: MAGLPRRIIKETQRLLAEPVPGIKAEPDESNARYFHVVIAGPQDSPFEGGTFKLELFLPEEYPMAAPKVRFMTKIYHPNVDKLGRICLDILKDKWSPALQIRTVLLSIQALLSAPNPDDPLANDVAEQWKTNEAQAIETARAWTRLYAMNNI

The next assay deals with UBE2D2 (Homo sapiens (Human), UniProt P62837).
Sequence of UBE2D2 (P62837 whole entry, looked up): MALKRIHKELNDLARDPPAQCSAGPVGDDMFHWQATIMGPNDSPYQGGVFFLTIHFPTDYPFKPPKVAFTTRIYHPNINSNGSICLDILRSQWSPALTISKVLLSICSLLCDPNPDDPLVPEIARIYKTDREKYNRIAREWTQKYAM

Sequence of UBE2L3 (P68036 whole entry): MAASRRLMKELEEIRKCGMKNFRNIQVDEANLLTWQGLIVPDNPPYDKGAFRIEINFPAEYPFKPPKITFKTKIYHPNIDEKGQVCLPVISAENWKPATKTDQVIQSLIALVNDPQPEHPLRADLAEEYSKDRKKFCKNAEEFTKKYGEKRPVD

B1: Arkadia (protein)
chain: KQDGEEGTEEDTEEKCTICLSILEEGEDVRRLPCMHLFHQVCVDQWLITNKKCPICRVDIEAQLPSES
On to B1, for which the Kd with UBE2L3 was determined as 27.3 µM; with UBE2N, 264 µM; with UBE2D2, 32 µM.

In general, Kd refers to the concentration at which binding is half-saturated.
